In paper PMC10641069, “Intra- and inter-molecular regulation by intrinsically-disordered regions governs PUF protein RNA binding” (Nature Communications, 2023):
Read-outs that look alike come from different tables or passages of the source.

How the values were obtained:
FBF-2 RBD + CT L610A = target: T1, FBF-2 RBD + CT L610A (Caenorhabditis elegans, UniProt Q09312, L610A); assay type: binding, C. elegans; conditions: pH 7.4
T1 construct: A cDNA fragment encoding C. elegans FBF-2 RBD + CT (residues 164-632) was cloned into the pSMT3 vector; His6-SUMO (N, cleaved yes); made in house; host or cells: E. coli BL21-CodonPlus (DE3)-RIL (as for wild type)

FBF-2 RBD+CT Loop6A = target: T2, FBF-2 RBD+CT Loop6A (Caenorhabditis elegans, UniProt Q09312 164-632, E592A;D594A;E597A;E599A;E604A;E605A); assay: EMSA; no LST-1; EMSA: FBF-2 in 20 mM HEPES pH 7.4, 150 mM NaCl, 0.5 mM TCEP mixed 1:1 with 5 nM final RNA in 10 mM HEPES pH 7.4, 0.01% Tween 20, 0.1 mg/ml BSA, 0.1 mg/ml yeast; conditions: protein: recombinant; tags: none (His6-SUMO removed with Ulp1); label: 3'-Cy5
T2 sequence: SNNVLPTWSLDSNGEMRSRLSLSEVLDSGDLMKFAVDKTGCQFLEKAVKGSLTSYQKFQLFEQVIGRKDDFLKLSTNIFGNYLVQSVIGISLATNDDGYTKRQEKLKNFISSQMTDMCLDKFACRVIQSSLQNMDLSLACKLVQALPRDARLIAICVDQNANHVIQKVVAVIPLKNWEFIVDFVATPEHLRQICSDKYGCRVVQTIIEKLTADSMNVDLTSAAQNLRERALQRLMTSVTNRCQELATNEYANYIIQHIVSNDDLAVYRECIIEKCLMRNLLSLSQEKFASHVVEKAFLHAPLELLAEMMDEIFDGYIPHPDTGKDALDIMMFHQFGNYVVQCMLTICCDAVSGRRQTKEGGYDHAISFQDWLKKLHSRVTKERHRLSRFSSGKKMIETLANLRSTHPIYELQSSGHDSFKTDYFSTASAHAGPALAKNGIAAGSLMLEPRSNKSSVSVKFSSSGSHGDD

FBF-2 RBD+CT L610A = target: T3, FBF-2 RBD+CT L610A (Caenorhabditis elegans, UniProt Q09312 164-632, L610A); assay: as above; conditions: protein: recombinant; tags: none (His6-SUMO removed with Ulp1); label: 3'-Cy5
T3 sequence: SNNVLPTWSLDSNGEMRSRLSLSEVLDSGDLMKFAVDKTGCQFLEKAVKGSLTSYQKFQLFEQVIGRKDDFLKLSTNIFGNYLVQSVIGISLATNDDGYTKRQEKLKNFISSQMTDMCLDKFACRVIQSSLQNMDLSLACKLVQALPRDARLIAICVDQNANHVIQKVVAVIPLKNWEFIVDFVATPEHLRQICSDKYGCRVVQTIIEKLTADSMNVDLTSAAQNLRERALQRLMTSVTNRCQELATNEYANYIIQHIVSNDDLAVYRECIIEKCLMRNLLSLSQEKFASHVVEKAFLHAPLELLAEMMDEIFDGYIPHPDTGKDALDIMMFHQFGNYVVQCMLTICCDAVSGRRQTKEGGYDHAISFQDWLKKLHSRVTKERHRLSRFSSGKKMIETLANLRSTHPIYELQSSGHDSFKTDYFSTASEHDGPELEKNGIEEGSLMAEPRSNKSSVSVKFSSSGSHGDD

FBF-2 RBD+CT Y479A = target: T4, FBF-2 RBD+CT Y479A (Caenorhabditis elegans, UniProt Q09312 164-632, Y479A); assay: as above; conditions: protein: recombinant; tags: none (His6-SUMO removed with Ulp1); label: 3'-Cy5
T4 sequence: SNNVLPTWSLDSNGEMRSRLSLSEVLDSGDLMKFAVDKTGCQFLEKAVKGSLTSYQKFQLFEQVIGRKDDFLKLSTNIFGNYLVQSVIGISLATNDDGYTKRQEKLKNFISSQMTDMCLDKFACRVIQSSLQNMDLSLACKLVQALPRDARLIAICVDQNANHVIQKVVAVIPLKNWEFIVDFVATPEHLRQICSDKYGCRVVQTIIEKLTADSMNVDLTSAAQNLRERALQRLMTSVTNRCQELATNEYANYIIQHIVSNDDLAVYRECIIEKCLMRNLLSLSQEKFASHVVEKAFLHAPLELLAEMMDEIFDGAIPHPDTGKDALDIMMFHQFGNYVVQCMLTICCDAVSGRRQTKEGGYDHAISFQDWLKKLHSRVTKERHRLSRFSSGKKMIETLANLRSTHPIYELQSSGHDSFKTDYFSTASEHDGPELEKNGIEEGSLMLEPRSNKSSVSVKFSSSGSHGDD

FBF-2 RBD+CT = target: T5, FBF-2 RBD+CT (Caenorhabditis elegans, UniProt Q09312 164-632); assay: as above; conditions: protein: recombinant; tags: none (His6-SUMO removed with Ulp1); label: 3'-Cy5
T5 sequence: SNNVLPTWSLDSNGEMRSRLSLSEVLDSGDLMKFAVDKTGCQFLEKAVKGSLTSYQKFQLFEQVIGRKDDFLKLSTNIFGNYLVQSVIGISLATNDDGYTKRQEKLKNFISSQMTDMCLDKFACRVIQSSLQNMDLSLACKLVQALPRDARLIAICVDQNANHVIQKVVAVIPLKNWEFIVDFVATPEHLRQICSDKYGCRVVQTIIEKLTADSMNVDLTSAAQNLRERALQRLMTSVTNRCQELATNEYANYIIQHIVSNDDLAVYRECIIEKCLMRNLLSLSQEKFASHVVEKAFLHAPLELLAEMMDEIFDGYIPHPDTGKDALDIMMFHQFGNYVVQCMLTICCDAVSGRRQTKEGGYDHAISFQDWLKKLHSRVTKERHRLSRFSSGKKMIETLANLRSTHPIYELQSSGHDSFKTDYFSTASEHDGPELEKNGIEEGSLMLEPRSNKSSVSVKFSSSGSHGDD

Row | Molecule | ∆G (FBF-2 RBD + CT L610A) | -T∆S (FBF-2 RBD + CT L610A; replicate 1, 20 °C) | ∆G (FBF-2 RBD + CT L610A; replicate 1, 20 °C) | ∆H (FBF-2 RBD + CT L610A; replicate 1, 20 °C) | -T∆S (FBF-2 RBD + CT L610A; replicate 2, 20 °C) | ∆H (FBF-2 RBD + CT L610A; replicate 2, 20 °C) | Kd (FBF-2 RBD+CT Loop6A) | Kd (FBF-2 RBD+CT L610A) | Kd (FBF-2 RBD+CT Y479A) | Kd (FBF-2 RBD+CT)
1 | LST-1 B: LST-1 B peptide, residues 67–98, expressed in E. coli (SSSPQQRSGLRSQKLHLTYIEKNKRVRAMIPQ; left off: His6-SUMO, N-terminal, cleaved) | -9.85 kcal/mol | 6 kcal/mol | -9.56 kcal/mol | -15.5 kcal/mol | 6.98 kcal/mol | -16.8 kcal/mol | – | – | – | –
2 | AUCAUGUGCCAUAC (ssRNA) [gld-1 FBEa RNA (EMSA)] | – | – | – | – | – | – | 101 ± 21 nM | 51 ± 26 nM | 62 ± 14 nM | 334 ± 61 nM
